± gives the standard deviation of the averaged measurements.
How the values were obtained:
[1] = test system: MCF7; assay: percentage of EdU-negative (G0-arrested) nuclei per well, 72 h; higher = more G0 arrest; settings: reference: sequence is the full UniProt precursor, the tested protein was the secreted form or ectodomain
[2] = test system: hTERT-HMEC; assay: as above; settings: reference: sequence is the full UniProt precursor, the tested protein was the secreted form or ectodomain
[3] = protein concentration 0.018565 µM
[4] = protein concentration 0.18565 µM
[5] = protein concentration 0.0225 µM
[6] = protein concentration 0.01675 µM
[7] = protein concentration 0.1675 µM
[8] = protein concentration 0.0128571 µM
[9] = protein concentration 0.128571 µM
[10] = protein concentration 0.0357143 µM
[11] = protein concentration 0.357143 µM
[12] = protein concentration 0.0242225 µM
[13] = protein concentration 0.242225 µM
[14] = protein concentration 0.0165525 µM
[15] = protein concentration 0.165525 µM
[16] = protein concentration 0.0135 µM
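Also: secreted proteins added to cultured cells, EdU pulse at the end, nuclei found by Hoechst imaging, EdU status from nuclear versus surrounding ring intensity ratio, PBS as neutral control.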

MSLSAFTLFLALIGGTSGQYYDYDFPLSIYGQSSPNCAPECNCPESYPSAMYCDELKLKSVPMVPPGIKYLYLRNNQIDHIDEKAFENVTDLQWLILDHNLLENSKIKGRVFSKLKQLKKLHINHNNLTESVGPLPKSLEDLQLTHNKITKLGSFEGLVNLTFIHLQHNRLKEDAVSAAFKGLKSLEYLDLSFNQIARLPSGLPVSLLTLYLDNNKISNIPDEYFKRFNALQYLRLSHNELADSGIPGNSFNVSSLVELDLSYNKLKNIPTVNENLENYYLEVNQLEKFDIKSFCKILGPLSYSKIKHLRLDGNRISETSLPPDMYECLRVANEVTLN
percentage of EdU-negative [1, 3]: 25.7 ± 0.65%
percentage of EdU-negative [1, 4]: 25.1 ± 0.99%
percentage of EdU-negative [2, 3]: 5.59 ± 1.8%
percentage of EdU-negative [2, 4]: 6.27 ± 1.2%

MGLEKPQSKLEGGMHPQLIPSVIAVVFILLLSVCFIASCLVTHHNFSRCKRGTGVHKLEHHAKLKCIKEKSELKSAEGSTWNCCPIDWRAFQSNCYFPLTDNKTWAESERNCSGMGAHLMTISTEAEQNFIIQFLDRRLSYFLGLRDENAKGQWRWVDQTPFNPRRVFWHKNEPDNSQGENCVVLVYNQDKWAWNDVPCNFEASRICKIPGTTLN [Q8WXI8]
percentage of EdU-negative [1, 5]: 23.5 ± 0.48%
percentage of EdU-negative ([1]; protein concentration 0.225 µM): 25.2 ± 0.46%
percentage of EdU-negative [2, 5]: 6.12 ± 0.23%
percentage of EdU-negative ([2]; protein concentration 0.225 µM): 6.07 ± 0.51%

MKKFFTVAILAGSVLSTAHGSLLNLKAMVEAVTGRSAILSFVGYGCYCGLGGRGQPKDEVDWCCHAHDCCYQELFDQGCHPYVDHYDHTIENNTEIVCSDLNKTECDKQTCMCDKNMVLCLMNQTYREEYRGFLNVYCQGPTPNCSIYEPPPEEVTCSHQSPAPPAPP [Q9BZM2]
percentage of EdU-negative [1, 5]: 24.06 ± 0.22%
percentage of EdU-negative ([1]; protein concentration 0.225 µM): 26 ± 1.2%
percentage of EdU-negative [2, 5]: 5.18 ± 0.43%
percentage of EdU-negative ([2]; protein concentration 0.225 µM): 5.34 ± 1.1%

MFKCWSVVLVLGFIFLESEGRPTKEGGYGLKSYQPLMRLRHKQEKNQESSRVKGFMIQDGPFGSCENKYCGLGRHCVTSRETGQAECACMDLCKRHYKPVCGSDGEFYENHCEVHRAACLKKQKITIVHNEDCFFKGDKCKTTEYSKMKNMLLDLQNQKYIMQENENPNGDDISRKKLLVDQMFKYFDADSNGLVDINELTQVIKQEELGKDLFDCTLYVLLKYDDFNADKHLALEEFYRAFQVIQLSLPEDQKLSITAATVGQSAVLSCAIQGTLRPPIIWKRNNIILNNLDLEDINDFGDDGSLYITKVTTTHVGNYTCYADGYEQVYQTHIFQVNVPPVIRVYPESQAREPGVTASLRCHAEGIPKPQLGWLKNGIDITPKLSKQLTLQANGSEVHISNVRYEDTGAYTCIAKNEAGVDEDISSLFVEDSARKTLANILWREEGLGIGNMFYVFYEDGIKVIQPIECEFQRHIKPSEKLLGFQDEVCPKAEGDEVQRCVWASAVNVKDKFIYVAQPTLDRVLIVDVQSQKVVQAVSTDPVPVKLHYDKSHDQVWVLSWGTLEKTSPTLQVITLASGNVPHHTIHTQPVGKQFDRVDDFFIPTTTLIITHMRFGFILHKDEAALQKIDLETMSYIKTINLKDYKCVPQSLAYTHLGGYYFIGCKPDSTGAVSPQVMVDGVTDSVIGFNSDVTGTPYVSPDGHYLVSINDVKGLVRVQYITIRGEIQEAFDIYTNLHISDLAFQPSFTEAHQYNIYGSSSTQTDVLFVELSSGKVKMIKSLKEPLKAEEWPWNRKNRQIQDSGLFGQYLMTPSKDSLFILDGRLNKLNCEITEVEKGNTVIWVGDA [Q8N475]
percentage of EdU-negative [1, 6]: 24.2 ± 4.5%
percentage of EdU-negative [1, 7]: 26.4 ± 1.8%
percentage of EdU-negative [2, 6]: 4.72 ± 1.2%
percentage of EdU-negative [2, 7]: 6.54 ± 0.16%

MPEEGSGCSVRRRPYGCVLRAALVPLVAGLVICLVVCIQRFAQAQQQLPLESLGWDVAELQLNHTGPQQDPRLYWQGGPALGRSFLHGPELDKGQLRIHRDGIYMVHIQVTLAICSSTTASRHHPTTLAVGICSPASRSISLLRLSFHQGCTIASQRLTPLARGDTLCTNLTGTLLPSRNTDETFFGVQWVRP
percentage of EdU-negative [1, 5]: 26.5 ± 2.2%
percentage of EdU-negative ([1]; protein concentration 0.225 µM): 26.6 ± 0.44%
percentage of EdU-negative [2, 5]: 5.04 ± 0.08%
percentage of EdU-negative ([2]; protein concentration 0.225 µM): 5.11 ± 0.64%

MRHLGAFLFLLGVLGALTEMCEIPEMDSHLVEKLGQHLLPWMDRLSLEHLNPSIYVGLRLSSLQAGTKEDLYLHSLKLGYQQCLLGSAFSEDDGDCQGKPSMGQLALYLLALRANCEFVRGHKGDRLVSQLKWFLEDEKRAIGHDHKGHPHTSYYQYGLGILALCLHQKRVHDSVVDKLLYAVEPFHQGHHSVDTAAMAGLAFTCLKRSNFNPGRRQRITMAIRTVREEILKAQTPEGHFGNVYSTPLALQFLMTSPMRGAELGTACLKARVALLASLQDGAFQNALMISQLLPVLNHKTYIDLIFPDCLAPRVMLEPAAETIPQTQEIISVTLQVLSLLPPYRQSISVLAGSTVEDVLKKAHELGGFTYETQASLSGPYLTSVMGKAAGEREFWQLLRDPNTPLLQGIADYRPKDGETIELRLVSW
percentage of EdU-negative ([1]; protein concentration 0.012 µM): 27 ± 1.9%
percentage of EdU-negative ([1]; protein concentration 0.12 µM): 25.5 ± 1.3%
percentage of EdU-negative ([2]; protein concentration 0.012 µM): 5.24 ± 0.2%
percentage of EdU-negative ([2]; protein concentration 0.12 µM): 6.61 ± 0.18%

MGPRARPALLLLMLLQTAVLQGRLLRSHSLHYLFMGASEQDLGLSLFEALGYVDDQLFVFYDHESRRVEPRTPWVSSRISSQMWLQLSQSLKGWDHMFTVDFWTIMENHNHSKESHTLQVILGCEMQEDNSTEGYWKYGYDGQDHLEFCPDTLDWRAAEPRAWPTKLEWERHKIRARQNRAYLERDCPAQLQQLLELGRGVLDQQVPPLVKVTHHVTSSVTTLRCRALNYYPQNITMKWLKDKQPMDAKEFEPKDVLPNGDGTYQGWITLAVPPGEEQRYTCQVEHPGLDQPLIVIWEPSPSGTLVIGVISGIAVFVVILFIGILFIILRKRQGSRGAMGHYVLAERE
percentage of EdU-negative [1, 8]: 25.8 ± 0.42%
percentage of EdU-negative [1, 9]: 29 ± 1.8%
percentage of EdU-negative [2, 8]: 5.75 ± 0.3%
percentage of EdU-negative [2, 9]: 7.25 ± 1.1%

MGAYARASGVCARGCLDSAGPWTMSRALRPPLPPLCFFLLLLAAAGARAGGYETCPTVQPNMLNVHLLPHTHDDVGWLKTVDQYFYGIKNDIQHAGVQYILDSVISALLADPTRRFIYVEIAFFSRWWHQQTNATQEVVRDLVRQGRLEFANGGWVMNDEAATHYGAIVDQMTLGLRFLEDTFGNDGRPRVAWHIDPFGHSREQASLFAQMGFDGFFFGRLDYQDKWVRMQKLEMEQVWRASTSLKPPTADLFTGVLPNGYNPPRNLCWDVLCVDQPLVEDPRSPEYNAKELVDYFLNVATAQGRYYRTNHTVMTMGSDFQYENANMWFKNLDKLIRLVNAQQAKGSSVHVLYSTPACYLWELNKANLTWSVKHDDFFPYADGPHQFWTGYFSSRPALKRYERLSYNFLQVCNQLEALVGLAANVGPYGSGDSAPLNEAMAVLQHHDAVSGTSRQHVANDYARQLAAGWGPCEVLLSNALARLRGFKDHFTFCQQLNISICPLSQTAARFQVIVYNPLGRKVNWMVRLPVSEGVFVVKDPNGRTVPSDVVIFPSSDSQAHPPELLFSASLPALGFSTYSVAQVPRWKPQARAPQPIPRRSWSPALTIENEHIRATFDPDTGLLMEIMNMNQQLLLPVRQTFFWYNASIGDNESDQASGAYIFRPNQQKPLPVSRWAQIHLVKTPLVQEVHQNFSAWCSQVVRLYPGQRHLELEWSVGPIPVGDTWGKEVISRFDTPLETKGRFYTDSNGREILERRRDYRPTWKLNQTEPVAGNYYPVNTRIYITDGNMQLTVLTDRSQGGSSLRDGSLELMVHRRLLKDDGRGVSEPLMENGSGAWVRGRHLVLLDTAQAAAAGHRLLAEQEVLAPQVVLAPGGGAAYNLGAPPRTQFSGLRRDLPPSVHLLTLASWGPEMVLLRLEHQFAVGEDSGRNLSAPVTLNLRDLFSTFTITRLQETTLVANQLREAASRLKWTTNTGPTPHQTPYQLDPANITLEPMEIRTFLASVQWKEVDG
percentage of EdU-negative [1, 5]: 24.7 ± 1.5%
percentage of EdU-negative ([1]; protein concentration 0.225 µM): 24.7 ± 1.2%
percentage of EdU-negative [2, 5]: 4.43 ± 0.26%
percentage of EdU-negative ([2]; protein concentration 0.225 µM): 5.51 ± 0.44%

MESKGASSCRLLFCLLISATVFRPGLGWYTVNSAYGDTIIIPCRLDVPQNLMFGKWKYEKPDGSPVFIAFRSSTKKSVQYDDVPEYKDRLNLSENYTLSISNARISDEKRFVCMLVTEDNVFEAPTIVKVFKQPSKPEIVSKALFLETEQLKKLGDCISEDSYPDGNITWYRNGKVLHPLEGAVVIIFKKEMDPVTQLYTMTSTLEYKTTKADIQMPFTCSVTYYGPSGQKTIHSEQAVFDIYYPTEQVTIQVLPPKNAIKEGDNITLKCLGNGNPPPEEFLFYLPGQPEGIRSSNTYTLTDVRRNATGDYKCSLIDKKSMIASTAITVHYLDLSLNPSGEVTRQIGDALPVSCTISASRNATVVWMKDNIRLRSSPSFSSLHYQDAGNYVCETALQEVEGLKKRESLTLIVEGKPQIKMTKKTDPSGLSKTIICHVEGFPKPAIQWTITGSGSVINQTEESPYINGRYYSKIIISPEENVTLTCTAENQLERTVNSLNVSAISIPEHDEADEISDENREKVNDQAKLIVGIVVGLLLAALVAGVVYWLYMKKSKTASKHVNKDLGNMEENKKLEENNHKTEA
percentage of EdU-negative [1, 10]: 26.8 ± 1.2%
percentage of EdU-negative [1, 11]: 25.13 ± 0.15%
percentage of EdU-negative [2, 10]: 4.83 ± 0.2%
percentage of EdU-negative [2, 11]: 5.08 ± 0.77%

Q8NBS9
percentage of EdU-negative [1, 12]: 27.1 ± 0.28%
percentage of EdU-negative [1, 13]: 27.4 ± 0.94%
percentage of EdU-negative [2, 12]: 4.77 ± 0.42%
percentage of EdU-negative [2, 13]: 8.37 ± 0.54%

MTMETQMSQNVCPRNLWLLQPLTVLLLLASADSQAAAPPKAVLKLEPPWINVLQEDSVTLTCQGARSPESDSIQWFHNGNLIPTHTQPSYRFKANNNDSGEYTCQTGQTSLSDPVHLTVLSEWLVLQTPHLEFQEGETIMLRCHSWKDKPLVKVTFFQNGKSQKFSHLDPTFSIPQANHSHSGDYHCTGNIGYTLFSSKPVTITVQVPSMGSSSPMGIIVAVVIATAVAAIVAAVVALIYCRKKRISANSTDPVKAAQFEPPGRQMIAIRKRQLEETNNDYETADGGYMTLNPRAPTDDDKNIYLTLPPNDHVNSNN
percentage of EdU-negative [1, 14]: 26.5 ± 1.3%
percentage of EdU-negative [1, 15]: 25.5 ± 0.26%
percentage of EdU-negative [2, 14]: 4.6 ± 0.053%
percentage of EdU-negative [2, 15]: 5.2 ± 0.11%

MSSEEGKLFVGGLNFNTDEQALEDHFSSFGPISEVVVVKDRETQRSRGFGFITFTNPEHASVAMRAMNGESLDGRQIRVDHAGKSARGTRGGGFGAHGRGRSYSRGGGDQGYGSGRYYDSRPGGYGYGYGRSRDYNGRNQGGYDRYSGGNYRDNYDN
percentage of EdU-negative [1, 16]: 25.1 ± 3.6%
percentage of EdU-negative ([1]; protein concentration 0.135 µM): 27 ± 1.7%
percentage of EdU-negative [2, 16]: 5 ± 0.36%
percentage of EdU-negative ([2]; protein concentration 0.135 µM): 8.05 ± 0.55%

MAAQGCAASRLLQLLLQLLLLLLLLAAGGARARWRGEGTSAHLRDIFLGRCAEYRALLSPEQRNKNCTAIWEAFKVALDKDPCSVLPSDYDLFINLSRHSIPRDKSLFWENSHLLVNSFADNTRRFMPLSDVLYGRVADFLSWCRQKNDSGLDYQSCPTSEDCENNPVDSFWKRASIQYSKDSSGVIHVMLNGSEPTGAYPIKGFFADYEIPNLQKEKITRIEIWVMHEIGGPNVESCGEGSMKVLEKRLKDMGFQYSCINDYRPVKLLQCVDHSTHPDCALKSAAAATQRKAPSLYTEQRAGLIIPLFLVLASRTQL
percentage of EdU-negative [1, 5]: 25.74 ± 0.03%
percentage of EdU-negative ([1]; protein concentration 0.225 µM): 23.5 ± 0.97%
percentage of EdU-negative [2, 5]: 5.33 ± 0.28%
percentage of EdU-negative ([2]; protein concentration 0.225 µM): 5.57 ± 1%

Reference: the supplement of paper PMC11316812
